Read-outs that look alike come from different tables or passages of the source.
T1: Elk1 ETS domain (Homo sapiens, UniProt P19419 1-93)
T1 sequence: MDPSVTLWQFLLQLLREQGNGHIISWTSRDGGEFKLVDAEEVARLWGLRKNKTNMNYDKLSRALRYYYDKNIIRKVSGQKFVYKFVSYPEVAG

B1: E74 (dsDNA)
DNA 1: CTGAATAACCGGAAGTAACTCATC
DNA 2: GATGAGTTACTTCCGGTTATTCAG
B2: SD1 (scrambled nonspecific) (dsDNA)
DNA 1: CGCAAAAGCTGAGATGGCGTGCC
DNA 2: GGCACGCCATCTCAGCTTTTGCG

Experiments:
Elk1 ETS domain [1] = target: T1, Elk1 ETS domain; test: SPR
Elk1 ETS domain [2] = target: T1, Elk1 ETS domain; test: SPR; remark: listed apart in the source

| Binder | binding result (Elk1 ETS domain [1]) | binding result (Elk1 ETS domain [2]) |
| --- | --- | --- |
| B1 | binds | – |
| B2 | – | no binding |

From paper PMC8233815
